Assay results published in patent publication US20240076392A1, “ANTI-CD123 BINDING MOLECULES AND USES THEREOF” (IGM Biosciences, Inc., priority 2021, published 2024).

T1: human CD123 on CHO cells (Homo sapiens, UniProt P26951)
T1 construct: expressed in transfected cells; host or cells: CHO cells
T1 sequence (P26951 19-378): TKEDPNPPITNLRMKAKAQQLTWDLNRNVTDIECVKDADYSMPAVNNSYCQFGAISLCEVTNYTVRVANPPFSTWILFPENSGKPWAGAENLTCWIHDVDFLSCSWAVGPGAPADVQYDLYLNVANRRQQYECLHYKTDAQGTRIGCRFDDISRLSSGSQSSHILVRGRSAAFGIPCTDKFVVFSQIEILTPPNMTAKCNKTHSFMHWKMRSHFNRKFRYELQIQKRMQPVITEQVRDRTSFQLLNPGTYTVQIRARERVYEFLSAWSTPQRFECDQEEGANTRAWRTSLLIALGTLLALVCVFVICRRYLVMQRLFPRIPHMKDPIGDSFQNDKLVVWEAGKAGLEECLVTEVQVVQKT

T2: recombinant human CD123 protein (CD123)-His (Homo sapiens, UniProt P26951)
T2 construct: purchased Acrobio (Acro Biosystems) ILA-H52H6
T2 sequence (P26951 19-378): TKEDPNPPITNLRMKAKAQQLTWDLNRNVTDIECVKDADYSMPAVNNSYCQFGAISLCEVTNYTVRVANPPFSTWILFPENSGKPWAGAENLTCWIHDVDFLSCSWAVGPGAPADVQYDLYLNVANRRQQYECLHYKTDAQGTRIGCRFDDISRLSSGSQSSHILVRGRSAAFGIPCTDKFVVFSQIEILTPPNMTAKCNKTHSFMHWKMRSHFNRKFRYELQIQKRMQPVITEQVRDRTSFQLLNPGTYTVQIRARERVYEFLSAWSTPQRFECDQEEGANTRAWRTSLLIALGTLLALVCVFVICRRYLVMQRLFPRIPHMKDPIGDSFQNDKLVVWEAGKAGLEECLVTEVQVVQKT


Legend:
human CD123 on CHO cells = target: T1, human CD123 on CHO cells; experiment: Flow cytometry binding of IgG antibodies to CD123 expressing CHO cells; details: 4-parameter logistic model; for Max binding intensity (MFI): flow cytometry
Method: To assess the ability of IgG antibodies to bind CD123 on CHO cells expressing the human CD123, a binding assay was performed. CHO cells expressing human CD123 were detached from flask using trypsin. Cells (1×105) were pipetted into wells in a round bottom 96 well plate, washed with FACS Stain Buffer (BD Pharmigen Catalog #554656) and pre-incubated with Fc Block (BD, #564220) for 10 minutes at room temperature followed by incubation at 4° C. with serial dilutions of 32716 or h32716 IgG antibodies for 30 minutes. Cells were washed twice and stained with a mouse anti human kappa antibody conjugated with Alexa647 (Southern Biotech, clone SB81a). Cells were analyzed by flow cytometry. Mean fluorescence intensity (MFI) values were analyzed with GraphPad Prism using a 4-parameter logistic model. All humanized IgG antibodies of 32716 anti-CD123 bound with similar affinities and intensities.

[1] = target: T2, recombinant human CD123 protein (CD123)-His; experiment: Biolayer interferometry (Octet) affinity measurement of IgG antibodies; format: binding; details: IgG format
Method: The binding affinities of parental 32716 IgG and humanized variants with recombinant human CD123 protein (CD123)-His Acrobio #ILA-H52H6) were determined by BLI on an Octet-384 (Sartorius/Fortebio, NY, USA) using Anti-penta His biosensors (Sartorius). PBST (1×PBS+1% BSA+0.05% Tween-20) buffer was used as Antibody/CD123 dilution and sensor hydration buffer. The experiment followed a five-step sequential assay at 24° C. First, biosensors were hydrated for 10 minutes. Samples and buffer were applied in 384-well plate. After initial baseline for 60 s, sensors were loaded with 7 nM hu IL-3R alpha (CD123)-His Acrobio #ILA-H52H6. The biosensors were dipped into PBST for 20 s to reach baseline, then incubated for 420 s with 2-fold serial diluted anti-CD123 antibodies starting at 10 nM for association, followed by 900 s in PBST for dissociation. Results were analyzed by ForteBio Data Analysis software 9.0 using 1:1 global fit model.

Molecule | HillSlope (human CD123 on CHO cells) | Max binding intensity (MFI) (human CD123 on CHO cells) | affinity compared to the original murine IgG antibody [1]
32716 IgG: parental (mouse) anti-CD123 antibody 32716 VH/VL (SEQ ID NO: 74/75) cloned into human IgG format (antibody, V domains shown, human IgG constant regions) VH: QIQLVQSGPELKKPGETVKISCKASGYIFTNYGMNWVKQAPGKSFKWMGWINTYTGESTYSADFKGRFAFSLETSASTAYLHINDLKNEDTATYFCARSGGYDPMDYWGQGTSVTVSS VL: DIVLTQSPASLAVSLGQRATISCRASESVDNYGNTFMHWYQQKPGQPPKLLIYRASNLESGIPARFSGSGSRTDFTLTINPVEADDVATYYCQQSNEDPPTFGAGTKLELK | 2.2 | 910000 | –
h32716-3-1 IgG: humanized 32716 anti-CD123 IgG, VH SEQ ID NO: 78, VL SEQ ID NO: 79 (antibody, V domains shown) VH: QVQLVQSGAEVKKPGSSVKVSCKASGYIFTNYGMNWVKQAPGQGFKWMGWINTYTGESTYSADFKGRFTFTLDESTSTAYMELSSLRSEDTAVYYCARSGGYDPMDYWGQGTLVTVSS VL: DIVMTQSPDSLAVSLGERATINCRASESVDNYGNTFMHWYQQKPGQPPKLLIYRASNLESGVPDRFSGSGSGTDFTLTISSLQAEDVAVYYCQQSNEDPPTFGQGTRLEIK | 1.9 | 940000 | slightly better affinity
h32716-2-1 IgG: humanized 32716 anti-CD123 IgG, VH SEQ ID NO: 77, VL SEQ ID NO: 79 (antibody, V domains shown) VH: QVQLVQSGAEVKKPGSSVKVSCKASGYIFTNYGMNWVKQAPGQGLEWMGWINTYTGESTYSADFKGRFTFTLDESTSTAYMELSSLRSEDTAVYYCARSGGYDPMDYWGQGTLVTVSS VL: DIVMTQSPDSLAVSLGERATINCRASESVDNYGNTFMHWYQQKPGQPPKLLIYRASNLESGVPDRFSGSGSGTDFTLTISSLQAEDVAVYYCQQSNEDPPTFGQGTRLEIK | 1.7 | 930000 | –
h32716-1-1 IgG: humanized 32716 anti-CD123 IgG, VH SEQ ID NO: 76, VL SEQ ID NO: 79 (antibody, V domains shown) VH: QVQLVQSGAEVKKPGSSVKVSCKASGYIFTNYGMNWVRQAPGQGLEWMGWINTYTGESTYSADFKGRVTITADESTSTAYMELSSLRSEDTAVYYCARSGGYDPMDYWGQGTLVTVSS VL: DIVMTQSPDSLAVSLGERATINCRASESVDNYGNTFMHWYQQKPGQPPKLLIYRASNLESGVPDRFSGSGSGTDFTLTISSLQAEDVAVYYCQQSNEDPPTFGQGTRLEIK | 2.0 | 950000 | –
h32716-4-2 IgG: humanized 32716 anti-CD123 IgG, VH SEQ ID NO: 80, VL SEQ ID NO: 83 (antibody, V domains shown) VH: QVQLVQSGPELKKPGASVKVSCKASGYIFTNYGMNWVRQAPGQGLEWMGWINTYTGESTYSADFKGRFVFSLDTSVSTAYLQISSLKAEDTAVYYCARSGGYDPMDYWGQGTLVTVSS VL: DIQMTQSPSSLSASVGDRVTITCRASESVDNYGNTFMHWYQQKPGKAPKLLIYRASNLESGVPSRFSGSGSGTDFTFTISSLQPEDIATYYCQQSNEDPPTFGQGTKVEIK | 2.4 | 980000 | –
h32716-5-2 IgG: humanized 32716 anti-CD123 IgG, VH SEQ ID NO: 81, VL SEQ ID NO: 83 (antibody, V domains shown) VH: QVQLVQSGPELKKPGASVKVSCKASGYIFTNYGMNWVKQAPGQGLEWMGWINTYTGESTYSADFKGRFVFSLDTSVSTAYLQISSLKAEDTAVYYCARSGGYDPMDYWGQGTLVTVSS VL: DIQMTQSPSSLSASVGDRVTITCRASESVDNYGNTFMHWYQQKPGKAPKLLIYRASNLESGVPSRFSGSGSGTDFTFTISSLQPEDIATYYCQQSNEDPPTFGQGTKVEIK | 2.2 | 1100000 | –
h32716-6-2 IgG: humanized 32716 anti-CD123 IgG, VH SEQ ID NO: 82, VL SEQ ID NO: 83 (antibody, V domains shown) VH: QVQLVQSGPELKKPGASVKVSCKASGYIFTNYGMNWVKQAPGQGFKWMGWINTYTGESTYSADFKGRFVFSLDTSVSTAYLQISSLKAEDTAVYYCARSGGYDPMDYWGQGTLVTVSS VL: DIQMTQSPSSLSASVGDRVTITCRASESVDNYGNTFMHWYQQKPGKAPKLLIYRASNLESGVPSRFSGSGSGTDFTFTISSLQPEDIATYYCQQSNEDPPTFGQGTKVEIK | 1.9 | 1000000 | –
